This assay concerns the target human FcRn (FCGRT heavy chain and B2M light chain) expressed on MDCK-hFcRn cells (human) (UniProt P55899). In words: cell-based or functional assay.
UniProt P55899, sequence (P55899 24-365, chain 1 of 2): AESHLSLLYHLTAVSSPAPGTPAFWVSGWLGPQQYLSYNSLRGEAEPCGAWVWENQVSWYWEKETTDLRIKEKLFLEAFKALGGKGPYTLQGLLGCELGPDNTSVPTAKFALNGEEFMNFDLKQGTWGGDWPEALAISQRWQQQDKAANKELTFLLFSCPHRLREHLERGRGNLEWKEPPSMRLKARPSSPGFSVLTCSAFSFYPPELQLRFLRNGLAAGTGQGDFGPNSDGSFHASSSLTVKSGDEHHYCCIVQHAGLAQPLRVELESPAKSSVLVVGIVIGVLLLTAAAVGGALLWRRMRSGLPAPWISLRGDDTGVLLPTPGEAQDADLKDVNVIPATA
UniProt P55899, sequence (P61769 21-119, chain 2 of 2, further chain): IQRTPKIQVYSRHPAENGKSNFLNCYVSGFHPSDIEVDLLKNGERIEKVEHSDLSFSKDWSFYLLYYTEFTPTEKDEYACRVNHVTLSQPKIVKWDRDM

anti-gD HAHQ (antibody) came in with a recycling output of 0.6 ng/mL.

anti-gD YTE (antibody) displayed a recycling output of 1.9 ng/mL.

These data come from patent US20240085404A1.
